The target of assay [1] is isolated human low-density lipoprotein (LDL) particles. In words: density gradient ultracentrifugation of PCSK9-LDL binding reactions, Western blot densitometry. As to conditions: conditioned cell culture medium incubated with LDL; n = 4; read off a plot. (In general: A western blot detects proteins with antibodies after separation by electrophoresis.)
In assay [2] the target is isolated human low-density lipoprotein (LDL) particles (human (endogenous in plasma)). Briefly: co-sedimentation; Optiprep density gradient ultracentrifugation: 1 μg PCSK9 (concentrated conditioned medium) with 500 μg isolated human LDL in 1.0 ml HBS-C (25 mM HEPES-KOH pH 7.4, 150 mM NaCl, 2 mM CaCl2), 0.5% BSA, 37 °C 1 h; LDL fraction immunoprecipitated with anti-PCSK9 serum, PCSK9 quantified by Western blot and normalised to WT.

As for “FLAG epitope-tagged recombinant human WT PCSK9 (proprotein convertase subtilisin/kexin type-9) (from UniProt Q8NBP7) Y38F”, the ratio to parent in assay [1] is 1.
“FLAG epitope-tagged recombinant human WT PCSK9 (proprotein convertase subtilisin/kexin type-9) (from UniProt Q8NBP7) Y38L”: the ratio to parent in assay [1] turned out to be 0.92.
As to R469W and F515L substitutions (PCSK9), in assay [2], the percent decrease of LDL binding against WT PCSK9 was 60 to 70%.
In turn, “human PCSK9 with the hydrophobic stretch (aa 41–45) and Arg-46 replaced by a glycine-serine linker (from UniProt Q8NBP7 31-152; Q8NBP7 153-692) (natural protein)” returned a percent reduction of LDL binding against WT PCSK9 in assay [2] of over 60%.

The values are drawn from article PMC7039556.
